A short description of the series: self-splicing fitness, log relative to wild type (ln ratio); higher = more splicing; Tetrahymena group I intron in knt gene, E. coli kanamycin selection, DiMSum; sequences stand for … in CUCUCU…GGAGGGAAAAGUUAUCAGGCAUGCACCUGGUAGCUAGUCUUUAAACCAAUAGAUUGCAUCGGUUUAAAAGGCAAGACCGUCAAAUUGCGGGAAAGGGGUCAACAGCCGUUCAGUACCAAGUCUCAGGGGAAACUUUGAGAUGGCCUUGCAAAGGGUAUGGUAAUAAGCUGACGGACAUGGUCCUAACCACGCAGCCAAGUCCUAAGUCAACAGAUCUUCUGUUGAUAUGGAUGCAGUUCACAGACUAAAUGUCGGUCGGGGAAGAUGUAUUCUUCUCAUAAGAUAUAGUCGGACCUCUCCUUAAUGGGAGCUAGCGGAUGAAGUGAUGCAACACUGGAGCCGCUGGGAACUAAUUUGUAUGCGAAAGUAUAUUGAUUAGUUUUGGAGUACUCGUGGUCG
In short, it runs like this: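 Fitness was computed with DiMSum as the error-weighted combination of replicate fold changes, kanamycin versus none, each normalised to wild type. The library randomised all eight intron nucleotides of the P1ex region, with the intron placed in the knt kanamycin-resistance gene on pET-22b(+) in E. coli BL21(DE3). Six replicate transformations were grown overnight at 37°C or 30°C on LB agar with or without 25 μg/mL kanamycin, plus 100 μg/mL carbenicillin, 50 μM IPTG and 0.2% rhamnose. Pooled colonies were amplicon-sequenced on an Illumina HiSeq 2500.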

± gives the uncertainty stated by the source.

In the case of CUCUAGCAAUAUUACGGCCG, the “self-splicing fitness (ln)” value (30 °C) is -2.41 ± 0.22 and the “self-splicing fitness (ln)” value (37 °C) is -2.2 ± 0.23.

Regarding CUCUAGCAAUAUUACGGCUA, the “self-splicing fitness (ln)” value (30 °C) is -2.32 ± 0.26 and the “self-splicing fitness (ln)” value (37 °C) is -1.28 ± 0.24.

Consider CUCUAGCAAUAUUACGGGGC, for which the “self-splicing fitness (ln)” value is, setting by setting: (30 °C) -2.81 ± 0.27; (37 °C) -2.64 ± 0.41.

CUCUAGCAAUAUUACGGGGU: the “self-splicing fitness (ln)” value by setting is: (30 °C) -3.87 ± 0.25; (37 °C) -3.39 ± 0.32.

Turning to CUCUAGCAAUAUUACGUAAC, where the note is “30 °C”, the “self-splicing fitness (ln)” value is -3.47 ± 0.29.

Take CUCUAGCAAUAUUACGUAGA: the “self-splicing fitness (ln)” value (30 °C) was -3.49 ± 0.27 and the “self-splicing fitness (ln)” value (37 °C) is -1.6 ± 0.17.

For the sequence CUCUAGCAAUAUUACGUAGG, the “self-splicing fitness (ln)” value reads like this: (30 °C) -2.83 ± 0.18; (37 °C) -1.9 ± 0.22.

For CUCUAGCAAUAUUACGUUGU, the “self-splicing fitness (ln)” value (30 °C) was -3.36 ± 0.2 and the “self-splicing fitness (ln)” value (37 °C) was -3.68 ± 0.31.

As for CUGAAGCAAUAUUACGAACG, the “self-splicing fitness (ln)” value by setting is: (30 °C) 0.17 ± 0.13; (37 °C) 0.661 ± 0.17.

For the sequence CUGAAGCAAUAUUACGAACU, the “self-splicing fitness (ln)” value reads like this: (30 °C) -3.64 ± 0.19; (37 °C) -2.37 ± 0.23.

In the case of CUGAAGCAAUAUUACGACAU, the “self-splicing fitness (ln)” value (30 °C) was -0.393 ± 0.012 and the “self-splicing fitness (ln)” value (37 °C) was 0.115 ± 0.033.

For CUGAAGCAAUAUUACGACCA, the “self-splicing fitness (ln)” value (30 °C) is -4.88 ± 0.41 and the “self-splicing fitness (ln)” value (37 °C) is -1.22 ± 0.18.

In the case of CUGAAGCAAUAUUACGACGA, the “self-splicing fitness (ln)” value (30 °C) is -1.04 ± 0.097 and the “self-splicing fitness (ln)” value (37 °C) was -0.00885 ± 0.14.

Take CUGAAGCAAUAUUACGAGUA: the “self-splicing fitness (ln)” value (30 °C) is -3.67 ± 0.28 and the “self-splicing fitness (ln)” value (37 °C) is -2.63 ± 0.3.

In the case of CUGAAGCAAUAUUACGAGUG, the “self-splicing fitness (ln)” value was found to be 0.0379 ± 0.053 (30 °C) and 0.068 ± 0.084 (37 °C).

With CUGAAGCAAUAUUACGAUUG, the “self-splicing fitness (ln)” value by setting is: (30 °C) 0.168 ± 0.099; (37 °C) -0.000234 ± 0.12.

Take CUGAAGCAAUAUUACGCCAG: the “self-splicing fitness (ln)” value is -3.75 ± 0.29 (30 °C) and -1.17 ± 0.21 (37 °C).

Take CUGAAGCAAUAUUACGCCUG: the “self-splicing fitness (ln)” value by setting is: (30 °C) -0.0552 ± 0.12; (37 °C) 0.982 ± 0.16.

For CUGAAGCAAUAUUACGCCUU, the “self-splicing fitness (ln)” value (30 °C) is -4.07 ± 0.33 and the “self-splicing fitness (ln)” value (37 °C) is -2.33 ± 0.31.

Take CUGAAGCAAUAUUACGGGCC: for the setting “30 °C”, the “self-splicing fitness (ln)” value is -3.65 ± 0.32.

For the sequence CUGAAGCAAUAUUACGGGCG, the “self-splicing fitness (ln)” value runs as follows: (30 °C) 0.0611 ± 0.06; (37 °C) -0.103 ± 0.074.

For the sequence CUGAAGCAAUAUUACGUAAC, for the setting “37 °C”, the “self-splicing fitness (ln)” value is -1.22 ± 0.24.

Turning to CUGAAGCAAUAUUACGUACC, the “self-splicing fitness (ln)” value (30 °C) is -3.37 ± 0.36.

In the case of CUGAAGCAAUAUUACGUAGC, the “self-splicing fitness (ln)” value by setting is: (30 °C) -4.07 ± 0.28; (37 °C) -3.43 ± 0.24.

Regarding CUGAAGCAAUAUUACGUAUA, the “self-splicing fitness (ln)” value (30 °C) is -2.8 ± 0.18 and the “self-splicing fitness (ln)” value (37 °C) is -2.19 ± 0.27.

CUGAAGCAAUAUUACGUCAU: the “self-splicing fitness (ln)” value (30 °C) is -1.03 ± 0.093 and the “self-splicing fitness (ln)” value (37 °C) is -0.736 ± 0.12.

On to CUGAAGCAAUAUUACGUCCA, for which, for the setting “30 °C”, the “self-splicing fitness (ln)” value was -1.93 ± 0.25.

Take CUGAAGCAAUAUUACGUCGC: the “self-splicing fitness (ln)” value was -3.18 ± 0.16 (30 °C) and -1.55 ± 0.22 (37 °C).

With CUGAAGCAAUAUUACGUGCA, the “self-splicing fitness (ln)” value reads like this: (30 °C) -3.96 ± 0.27; (37 °C) -2.82 ± 0.25.

Regarding CUGAAGCAAUAUUACGUGGC, the “self-splicing fitness (ln)” value runs as follows: (30 °C) -1.58 ± 0.077; (37 °C) -0.491 ± 0.099.

Consider CUGAAGCAAUAUUACGUGUG, for which the “self-splicing fitness (ln)” value reads like this: (30 °C) -0.196 ± 0.046; (37 °C) -0.0989 ± 0.067.

On to CUGCAGCAAUAUUACGAACG, for which the “self-splicing fitness (ln)” value is 0.237 ± 0.087 (30 °C) and -0.269 ± 0.08 (37 °C).

CUGCAGCAAUAUUACGAAGA: the “self-splicing fitness (ln)” value is -1.62 ± 0.23 (30 °C) and -2.17 ± 0.27 (37 °C).

On to CUGCAGCAAUAUUACGAAUG, for which the “self-splicing fitness (ln)” value by setting is: (30 °C) -0.593 ± 0.066; (37 °C) -0.0469 ± 0.081.

For the sequence CUGCAGCAAUAUUACGAUCA, the “self-splicing fitness (ln)” value reads like this: (30 °C) -3.57 ± 0.29; (37 °C) -2.5 ± 0.2.

As for CUGCAGCAAUAUUACGAUUC, under “37 °C”, the “self-splicing fitness (ln)” value is -2.05 ± 0.2.

As to CUGCAGCAAUAUUACGCAUC, the “self-splicing fitness (ln)” value (37 °C) was -2.46 ± 0.3.

CUGCAGCAAUAUUACGCCAA: the “self-splicing fitness (ln)” value (37 °C) is -1.67 ± 0.18.

As to CUGCAGCAAUAUUACGCCCG, the “self-splicing fitness (ln)” value (30 °C) is -0.269 ± 0.098 and the “self-splicing fitness (ln)” value (37 °C) turned out to be 0.148 ± 0.13.

For CUGCAGCAAUAUUACGCCGG, the “self-splicing fitness (ln)” value is -2.55 ± 0.19 (30 °C) and -1.56 ± 0.29 (37 °C).

Consider CUGCAGCAAUAUUACGCGGC, for which the “self-splicing fitness (ln)” value (37 °C) is -2.63 ± 0.34.

Source of the values: the supplement of paper PMC7877785.
